Reference: the DeepSol protein solubility set

assay: soluble on expression in E. coli; label from the status in PepcDB or PDB records

Sequence	soluble on expression in E. coli
QTFGHGQARAFVLSPVMPVWDQGAFAGPLIEHFIRSGHQVTVFDSLSLPAVPDECFSGFAERWADALEPWGVPDVLVGVALGGALAQALAGISFLSVTPALLLLSSPSKADALLDARLGRMADLAEQGHVRQAKRLLDELVLPEGQAHAEQDRFDTETDALLAPQGRRLVRGFRLLDGVNVSERLCDYEGRVLSVFGGKSQLVGADHVLRTKGSNQHS	not soluble
QTGVQTNTPFGSGEDSIRCRQNISLFTSYAKTGNYKDAYDFWEKAYEECPASTKNIYIYGVKISEWRLQNEQDPAKRQQIIDKILKLYDDRVKYFGEDPKYGTDYIMASKISDYMQYMGDKTDYDKVYEWIKPTIDQHGENATPRALFYYAYSSLNKAIRNEAWHETYIKDYTFASQAMEKQLEVADEKGKEFIQPLKTQIDELFAQSGLADCNTLVKMYGDKLEENKTDTTFLKNMLGMFHASDCETHPLYFQANK	not soluble
QTSPMTPDITGKPFVAADASNDYIKREVMIPMRDGVKLHTVIVLPKGAKNAPIVLTRTPYDASGRTERLASPHMKDLLSAGDDVFVEGGYIRVFQDVRGKYGSEGDYVMTRPLRGPLNPSEVDHATDAWDTIDWLVKNVSESNGKVGMIGSSYEGFTVVMALTNPHPALKVAVPESPMIDGWMGDDWFNYGAFRQVNFDYFTGQLSKRGKGAGIARQGHDDYSNFLQAGSAGDFAKAAGLEQLPWWHKLTEHAAYDAFWQEQALDKVMARTPLKVPTMWLQGLWDQEDMWGAIHSYAAMEPRDKRNTLNYLVMGPWRHSQVNYDGSALGALNFEGDTARQFRHDVLRPFFDQYLVDGAPKADTPPVFIYNTGENHWDRLKAWPRSCDKGCAATSKPLYLQAGGKLSFQPPVAGQAGFEEYVSDPAKPVPFVPRPVDFADRAMWTTWLVHDQRFVDGRPDVLTFVTEPLTEPLQIAGAPDVHLQASTSGSDSDWVVKLIDVYPEEMASNPKMGGYELPVSLAIFRGRYRESFSTPKPLTSNQPLAFQFGLPTANHTFQPGHRVMVQVQSSLFPLYDRNPQTYVPNIFFAKPGDYQKATQRVYVSPEQPSYISLPVR	soluble
QVKLLESGPELVKPGASVKMSCKASGYTFTSYVMHWVKQKPGQGLEWIGYINPYNDGTKYNEKFKGKATLTSDKSSSTAYMELSSLTSEDSAVYYCVRGGYRPYYAMDYWGQGTSVTVSSAKTTPPSVYPLAPGSAAQTNSMVTLGCLVKGYFPEPVTVTWNSGSLSSGVHTFPAVLQSDLYTLSSSVTVPSSTWPSETVTCNVAHPASSTKVDKKIVPRDCTSHHHHHH	soluble
QVQLLESGPELVEPGASVKVSCKASAYSITDFNIYWVKQSHGKNLEWIGGIDPHNGGPVYNQKFNGKATLTVDKSSSTAFMHLNSLTSEDSAVYYCAIFYGNFFDYWGPGTTVTVSSASTKGPSVFPLAPSSKSTSGGTAALGCLVKDYFPEPVTVSWNSGALTSGVHTFPAVLQSSGLYSLSSVVTVPSSSLGTQTYICNVNHKPSNTKVDKKVEPKSCDKTHT	soluble
QVQLVQSGAEVKKPGSSVKVSCTSSEVTFSSFAISWVRQAPGQGLEWLGGISPMFGTPNYAQKFQGRVTITADQSTRTAYMDLRSLRSEDTAVYYCARSPSYICSGGTCVFDHWGQGTLVTVSSGGGGSGGGGSGGGGIQPGLTQPPSVSKGLRQTATLTCTGNSNNVGNQGAAWLQQHQGHPPKLLSYRNNDRPSGISERFSASRSGNTASLTITGLQPEDEADYYCSTWDSSLSAVVFGGGTKLTVLGQPKAAPSAAAEQKLISEEDLNGAAHHHHHH	soluble
QVRQSPQSLTVWEGETTILNCSYENSAFDYFPWYQQFPGEGPALLIAIRSVSDKKEDGRFTIFFNKREKKLSLHITDSQPGDSATYFCAATGANTGKLTFGHGTILRVHPNIQNPDPAVYQLRDSKSSDKSVCLFTDFDSQTNVSQSKDSDVYITDATVLDMRSMDFKSNSAVAWSNKSDFACANAFNNSIIPEDTFFPS	soluble
QVVMPRPPALCQGCGHRDVYDALNKVAAEYPDARIFGDIGCYTLGALPPFRAIDSCVDMGASITMAKGASDAGVFPAIAVIGDSTFTHSGMTGLLDAVNDRANITVVISDNLTTAMTGGQDSAGTNKFEAICLGLGVEPEHVRVVVPLPKNMEEITRTIREEIEYKGVSVIIPRRECIQTLNRKLRQKKADKA	not soluble
RAAIHDIATPVAIVDEQGRVVNLNAAAEQMLAVDKHEALTEPLNDFLGGDDIATDGGSSRVSIEADGRHREYKVQQTALRDETGTQLGYTVVFQDIT	soluble
RADEQAFLVALYKYMKERKTPIERIPYLGFKQINLWTMFQAAQKLGGYETITARRQWKHIYDELGGNPGSTSAATCTRRHYERLILPYERFIKGEEDKPLPPIKPRK	soluble
RAKLMEERETSLKDSVEVAFDAVRLIANNPNLSEAEAKQQVKAVLTNIRYGSDGYFFAYDAQGTNLVHPIQPELVGQNLWQLQDERGDFLIQ	not soluble
RAVDNAEPAALETSTRTIPTNGRTMTPVQATYWVGRQPDYALGGIATRFYMEHDITIDGPMDEWIDALRRSWNTVVQRHGMLRATVDRDGKISIADTVTEHPLPVHNADHAAEVRERLAHRTADLGTWPVHDIELTTITATTVRIHCGFDVILIDYPSIMRVLNDWGRALAGYDLGTEDTSFSDLIAQGIAEPCPSDEAYWRERAPRLLPGPLDLAEMTYDAATTPEFHRHTRTIAAQQWKQFVDNAHAHGTNASSALLAVAAHSLRHVGPRRSFTLGATFFSPDVLEHGPVGDFTRTGVVELPDTADTFAQQASAAQHELWEAFDHASVTSADIMRWRNSDTTGQALPDYPVVFTSALGHGDSTDWPGVMTWGVSQTPQVLMDLLHWESDGDLVLAWDCVDAALPENFADNAIDIAYAVIQQLTNPAVWTDPTVVADPWLRMPGPMERIGESELIDAPLRA	not soluble
REAFVSIQTSTIPKTAYAAVNFVETQGEDESYTDSLSTDNKRDIYADFAVIEIPLFLTNHRDYQVFNEFIKPAIETYKQLGNSSFEKKQLDQHKNDNFYMLGYPLVESSIDALILNQRRQYNNSYTEKYTPQTLTKDQRTIDLSREVPTLIQNKTENSTGSQLLVNQSLSSTSEGIIE	soluble
REIADNTYIVLGTMTLNDFNEYFETDLESDNVDTIAGFYLTGVGTIPSQEEKEHFEVESNGKHLELINDKVKDGRVTKLKILVSE	soluble
RENFPGVSWDSLPDELLLGIFSCLCLPELLKVSGVCKRWYRLASDESLWQTLDLTGKNLHPDVTGRLLSQGVIAFRCPRSFMDQPLAEHFSPFRVQHMDLSNSVIEVSTLHGILSQCSKLQNLSLEGLRLSDPIVNTLAKNSNLVRLNLSGCSGFSEFALQTLLSSCSRLDELNLSWCFDFTEKHVQVAVAHVSETITQLNLSGYRKNLQKSDLSTLVRRCPNLVHLDLSDSVMLKNDCFQEFFQLNYLQHLSLSRCYDIIPETLLELGEIPTLKTLQVFGIVPDGTLQLLKEALPHLQINCSHFTTIARPTIGNKKNQEIWGIKCRLTLQKPSCL	soluble
RGIAVYVEHHNGNIHPVTYELIGKAREMASKIKQPVYCVFVGKDIKDKCSNLISYGVDEVFVYDEDEFKDFRIEPYSKAIENFIDKIKPTIVLVGGTTLGRSLAPRLAARFRTGLTADCTILDIQSNTDLDQIRPAFGGNIMAHINTPNNRPQFATVRYKIFSAPEKIENTTGKITLCKVEKKELKSKIKVLS	not soluble
RGSLTIYIGYSPGVGKTFEMLSNAIELFQSNVDIKIGYIEPHQRDETNALAEQLPKITTNFTKHGSHHFQYLDVDRIIEESPTIVLIDELAHTNISRDRHEKRYMDIEEILNHGIDVHTTLNIQHIESLSSQIELMTGVHVKERVPDYFIMSADVLEVVDISPEQLIKRLKAGKVYKKDRLDVAFSNFFTYAHLSELRTLTLRTVADLMSDKEKVRHNHKTS	not soluble
RPSSVVIGTASQGGVYYIYGGGLAQLLDRELGVSSNVEVTGGPVHNMQLVNEQEQDIGMITMGPGYEGVLGEGEWTGGETYDNVRVIFPMYTTPFHWWSLESSGVTSIEDMDGMRVGVGPSGGTSGTYLPIIHEVLGLDITPVLAGANDMVSQQLDGQLDVIGFAAGLPIPAVAEVEAQRDIHLFGIDGENRDKVLEALPYFEPYTIPADTYDQLDEDLETIAMFNFGITYSEMNADFVYELVKAYHENNDLLMTTHSSAEEAVPEAILRNEVVPLHVGAIRYYEEIGIDLPESVYPAEWENE	not soluble
RRFEPLLLLPIGFGGLLSNIPEAGLAMTALDHLLHYAHTEQLTIIAEKVNSSSLDVHTIKQAIAFAPPSVQNELEVIASDLGYNAG	not soluble
RRNALELEVFAGQEKSELSMIEVARAILELRGRDHEMHFSDLVNEIQNYLGTSNSDIREALPLFYTELNFDGSFISLGDNKWGLRSWYGVDEIDEEIIALEENDDDEVAPKAKKKRVNAFMDGDSDAIDYNADDPEDEDAYEADPALSYDDENPDDEKNEVEAYDAEINEIAPDDLGEDVDLNEDDDEFSDDDAET	not soluble
RSRLVQFQKNTDEPMGITLKMNELNHCIVARIMHGGMIHRQGTLHVGDEIREINGISVANQTVEQLQKMLREMRGSITFKIVPSYREF	soluble
RTMGFYVAKGNPKNITGWEDFRRDDLTMVNRERGCGTRILLDEHLRLLNIDGNKINGYSRESLSHLAIASIISRNGADIGIGNEKTGLQVANIDFIPIQRERYDLVIRKDDIEKPPFKAIIDILQSETFKSELMGIGGYDLTQTG	not soluble
RTVRQTPKQSERYVVVLSLDGFRPDYTDRARTPALDRMAQEGLSGSLQPCFPSLTFPNHYSMATGLYPDHHGIVANEFVDSLLGIFRISDRKAVETPGFWGGEPVWNTAARQGIRTGVYFWVGSETAVNGNRPWRWKKFSSTVPFRDRADSVIAWLGLPEKERPRLLMWYIEEPDMIGHSQTPESPLTLAMVERLDSVVGYFRKRLDSLPIAAQTDFIIVSDHGMATYENEKCVNLSH	not soluble
SAALRYAGLDDTDSEDELPPGWEERTTKDGWVYYANHTEEKTQWEHPKTGKRKRVAGDLPYGWEQETDENGQVFFVDHINKRTTYLDPRLAFTVDDNPTKPTTRQRYDGSTTAMEILQGRDFTGKVVVVTGANSGIGFETAKSFALHGAHVILACRNMARASEAVSRILEEWQQGAATTVYCAAVPELEGLGGMYFNNCCRCMPSPEAQSEETARTLWALSERLIQERLGSQSG	soluble
SAASAALILPESPSMKKAVPLINAIDTGRFPRLLSRILQKLHLKAESSFSEEEEEKLQAAFSLEKQELHLVLETISFVLEQAVYHNVKPAALQQQLEMIHLRKDKAEAFASAWSAMGQETVEKFRQRILGPHKLETVGWQLNLQMAHSAQAKLQSPQAVLQLGVSKEDAKNVEKVLVEFNHKELFDFYNKLETIQAQLDSLT	soluble
SADDKDVLRDVWFGRIPACFTLSPDETTEREAEPYYLLLPRVSYLTLVTDKVKKHFLKVMKAEDVEEMWFEHEGTPLKWHYPIGVLFDLHASNSALPWNVTVHFKNFPEQDLLHCSTNSVIEAHFMSCIKEADALKHKGQVINDMQKKDHKQLWMGLQNDKFDQFWAMNRKLMEYPTEEGGFRYIPFRIYQTMSDRPFIQTLFRPVSSEGQALTLGDLLKELFPAAIEDEPKKFQVMIHGIEPLLETPIQWLSEHLSHPDNFLHISIIPAPSD	soluble
